Square brackets hold non-standard residues; d marks the D form. Ends that are not written are not given here. Peptide text beside a SMILES is read from it.
Experiments:
[1] = molecular target: C. acnes hyaluronidase HylA, recombinant (rHylA), fluorescently labeled (C. acnes); experiment: Microscale thermophoresis (MST), peptide titrated against fluorescent labeled HylA
[2] = molecular target: C. acnes hyaluronidase HylA, recombinant (rHylA), fluorescently labeled (C. acnes); experiment: not given; MST against fluorescent labeled HylA per the methods
HylA = molecular target: T1, HylA (Cutibacterium acnes, UniProt A0A2B7ICX0); experiment: Microscale thermophoresis (MST) measurement of HylA binding to peptide inhibitors; set-up: species or system C. acnes
T1 construct: HylA (41-805) were cloned into; His6 (N); MBP (N); made in house; host or cells: E. coli BL21(DE3) pLysS
Method: The Monolith NT.115 instrument (Nanotemper Technologies, München, Germany) was used to measure the binding of peptide inhibitors to the HylA. For the MST experiment, the HylA is fluorescently labeled by cysteine labeling by using the Monolith protein labeling kit RED-MALEIMIDE 2nd generation (Catalog Number: L014). The assay is performed in 100 mM Sodium acetate buffer pH 5.3 supplied with 0.05% Tween-20. A serial dilution of the 1932 peptide (50 μM through 1.5 nM) was titrated against 30 nM fluorescent labeled HylA. For the titration, 10 μL of each concentration of the peptide was mixed with 10 μL of the fluorescent labeled HylA. The MST measurement settings include medium MST power, 40% excitation power, Nano-RED excitation type and 25° C. thermostat temperature. Affinity of the peptide binding to HylA was determined by the MO.Affinity Analysis Software (Nanotemper Technologies, München, Germany).

rHylA = molecular target: T2, rHylA (Cutibacterium acnes, UniProt A0A2B7ICX0); experiment: HA digested with rHylA in presence of inhibitor, digest applied to HaCaT cells, IL-6 by ELISA; format: cell-based, C. acnes; details: inhibitor 5 or 10 μM, HA 2 mg/ml digested with rHylA 24 hr, IL-6 in HaCaT culture supernatant
T2 construct: HylA (41-805) were cloned into; His6 (N); MBP (N); made in house; host or cells: E. coli BL21(DE3) pLysS
Method: HaCaT cells (ATCC) were cultured in complete DMEM media (Catalog no. 10-013-CV, Corning incorporated, USA) plus 10% heat-inactivated FBS in 5% C02 at 37° C. Before cell stimulation with digested HA (40 μg), HaCaT cells were seeded in 96-wells Falcon® 96-well tissue culture plate (Catalog no. #353072, corning incorporated, USA) at a concentration of 10^5 cells/ml and incubated in 5% CO2 at 37° C. for 6 hr, followed by washing with DMEM media and cell stimulation.
For BMDMs and HaCaT cell assays, an equivalent of 40 μg of HA digest was used to stimulate 10^5 cells for 8 and 16 hr, respectively. Cells were plated in a Falcon® 96-well tissue culture plate and cultured in 200 μl of complete RPMI medium supplemented with 10% FBS and 1× penicillin-streptomycin antibiotics solution. […]
IL-1β, IL-6, and TNF-α cytokine levels in skin homogenates, previously stored at −80° C., were measured by a solid-phase sandwich ELISA using commercially available mouse cytokine ELISA kits (Biolegend, San Diego, CA, USA). […] The plates were developed and read at optical density (OD) of 450 nm with a wavelength correction set to 570 nm in a multimode microplate reader (PerkinElmer, Waltham, MA, USA). […]

HL043PA1 strain = experiment: Mouse acne model, inhibitor co-injected i.d. with acne-associated HL043PA1 strain; format: in vivo, C. acnes; details: CD1 mice, 10 μg inhibitor co-injected i.d. with 2×10^7 CFU HL043PA1, disease score and skin cytokines 24 hr post-infection
Method: To model human acne disease, 8 weeks-old mice were i.d. infected with C. acnes strains (2×10^7 CFU in 50 μl volume of BHI media), followed by the topical application of synthetic sebum daily as described previously. i.d. infections were performed under vaporized Isoflurane (Fluriso, Vet One) anesthesia. Synthetic sebum was made by mixing fatty acid (17% oleic acid; Catalog no. #01008, Millipore Sigma), triglyceride (45% triolein; Catalog no. #ICN10312201, FisherScientific), wax monoester (25% jojoba oil, Trader Joe), and squalene (13%; Catalog no. #AC215351000, FisherScientific). One or two days after infection, disease score was assessed and the mice were euthanized by C02. Skin lesions were aseptically excised and harvested in phosphate buffer saline (PBS, pH 7.4). […]
Gross skin pathology was scored based on tabulation of the following: Erythematous change (no=0, mild=1, moderate 2, and marked=3); papule (flat=0, small=1, large=2. And extra-large=3) based on a protocol modified from.
For in vivo experiments, inhibitors (10 μg) were injected along with C. acnes strains (2×10^7 CFU) i.d. into CD1 mice, followed by the topical application of sebum. After 24 hr, bacterial count (CFU/ml), size of the skin lesions and proinflammatory cytokines (IL-1β, IL-6 and TNF-α) in skin lesions were measured. […]

[3] = molecular target: T3, C. acnes hyaluronidase HylA, recombinant (rHylA), fluorescently labeled (C. acnes, UniProt A0A2B7ICX0 41-805, Fluorescently labelled on cysteine(s) with the RED-MALEIMIDE 2nd generation dye. Which cysteine carries the dye is not stated.); experiment: microscale thermophoresis (MST), peptide titrated against fluorescently labeled HylA, Kd model fit, mean +/- SD of triplicates
T3 construct: TEV cleavage is described only for the crystallization preparation; not shown: N-terminal His6-MBP-TEV tag from the pET His6 MBP TEV LIC vector
T3 sequence: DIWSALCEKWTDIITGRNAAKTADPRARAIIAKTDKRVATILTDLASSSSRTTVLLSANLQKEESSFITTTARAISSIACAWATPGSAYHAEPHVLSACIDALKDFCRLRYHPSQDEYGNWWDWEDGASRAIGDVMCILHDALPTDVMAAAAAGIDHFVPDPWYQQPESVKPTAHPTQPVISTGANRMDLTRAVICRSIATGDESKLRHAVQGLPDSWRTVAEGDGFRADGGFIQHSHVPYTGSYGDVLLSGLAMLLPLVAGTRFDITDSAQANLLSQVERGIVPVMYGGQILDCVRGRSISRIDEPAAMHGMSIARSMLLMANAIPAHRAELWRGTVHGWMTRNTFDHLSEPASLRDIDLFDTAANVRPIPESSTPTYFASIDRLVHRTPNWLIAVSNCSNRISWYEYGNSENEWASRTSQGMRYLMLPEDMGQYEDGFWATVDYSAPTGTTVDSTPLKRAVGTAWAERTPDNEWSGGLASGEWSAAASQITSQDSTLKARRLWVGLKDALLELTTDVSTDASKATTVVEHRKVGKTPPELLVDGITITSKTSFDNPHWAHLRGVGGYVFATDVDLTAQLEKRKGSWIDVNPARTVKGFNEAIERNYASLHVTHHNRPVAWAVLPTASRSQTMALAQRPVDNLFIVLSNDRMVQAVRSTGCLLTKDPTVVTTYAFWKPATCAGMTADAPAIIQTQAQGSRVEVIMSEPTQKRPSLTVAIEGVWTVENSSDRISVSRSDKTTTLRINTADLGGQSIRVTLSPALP

[4] = molecular target: T3, C. acnes hyaluronidase HylA, …; experiment: not given; MST against fluorescent labeled HylA per the methods
[5] = molecular target: T3, C. acnes hyaluronidase HylA, …; experiment: Microscale thermophoresis (MST), peptide titrated against fluorescent labeled HylA
[6] = binding constant (KD), MST, peptide titrated against 30 nM fluorescent labeled HylA, values in running text and figure legend

peptide i93, Tyr-Asp-dGlu-Tyr-dGlu-Ser-dGlu-NH2
Kd [1]: 912 µM
Kd [2]: 140 µM

N[C@@H](Cc1ccc(O)cc1)C(=O)N[C@@H](CC(=O)O)C(=O)N[C@H](CCC(=O)O)C(=O)N[C@@H](Cc1ccc(O)cc1)C(=O)N[C@H](CCC(=O)O)C(=O)N[C@@H](CO)C(=O)N[C@H](CCC(=O)O)C(=O)O [i94, Tyr-Asp-dGlu-Tyr-dGlu-Ser-dGlu-OH] (H-YD[dE]Y[dE]S[dE]-OH; N-terminus assumed)
Kd (HylA; KD, table Peptides' properties): 4.3 µM

peptide i94, Tyr-Asp-dGlu-Tyr-dGlu-Ser-dGlu-OH
Kd [2]: 4.3 µM

NC(=O)[C@@H](CCC(=O)O)NC(=O)[C@H](CO)NC(=O)[C@H](CC(=O)O)NC(=O)[C@H](Cc1ccc(O)cc1)NC(=O)[C@@H](CCC(=O)O)NC(=O)[C@H](CC(=O)O)NC(=O)[C@H](Cc1ccc(O)cc1)NC(=O)[C@@H](CCC(=O)O)NC(=O)[C@H](CO)NC(=O)[C@@H](CCC(=O)O)NC(=O)[C@H](Cc1ccc(O)cc1)NC(=O)[C@@H](CCC(=O)O)NC(=O)[C@H](CC(=O)O)NC(=O)[C@@H](N)Cc1ccc(O)cc1 [i932, Tyr-Asp-dGlu-Tyr-dGlu-Ser-dGlu-Tyr-Asp-dGlu-Tyr-Asp-Ser-dGlu-NH2] (H-YD[dE]Y[dE]S[dE]YD[dE]YDS[dE]-NH2; N-terminus assumed)
Kd (HylA; [6]): 3.06 µM
Kd (HylA; binding constant (KD), MST, peptide titrated against fluorescent labeled HylA, value): 0.0216 µM
efficacy in vitro (rHylA): highest efficacy
efficacy in vivo (HL043PA1 strain): highest efficacy

NC(=O)[C@@H](CCC(=O)O)NC(=O)[C@H](CO)NC(=O)[C@@H](CCC(=O)O)NC(=O)[C@H](Cc1ccc(O)cc1)NC(=O)[C@@H](CCC(=O)O)NC(=O)[C@H](CC(=O)O)NC(=O)[C@@H](N)Cc1ccc(O)cc1 [i93, Tyr-Asp-dGlu-Tyr-dGlu-Ser-dGlu-NH2] (H-YD[dE]Y[dE]S[dE]-NH2; N-terminus assumed)
Kd (HylA; KD, table Peptides' properties): 140 µM
Kd (HylA; [6]): 911 µM

B1: peptide i933, Tyr-Cys-Asp-dGlu-Tyr-dGlu-Ser-dGlu-Cys-Tyr-NH2 (peptide)
peptide: YCD[dE]Y[dE]S[dE]CY-NH2
modifications: also: cyclic peptide with Cys2 and Cys9, mode of cyclization not given here
notes: also called 1933
EC50 (read off the curve) [3]: ~2 µM
Kd [4]: 292 µM
Kd [5]: 1.76 µM

B2: peptide i932, Tyr-Asp-dGlu-Tyr-dGlu-Ser-dGlu-Tyr-Asp-dGlu-Tyr-Asp-Ser-dGlu-NH2 (peptide)
peptide: YD[dE]Y[dE]S[dE]YD[dE]YDS[dE]-NH2
modifications: N-terminus assumed
SMILES: NC(=O)[C@@H](CCC(=O)O)NC(=O)[C@H](CO)NC(=O)[C@H](CC(=O)O)NC(=O)[C@H](Cc1ccc(O)cc1)NC(=O)[C@@H](CCC(=O)O)NC(=O)[C@H](CC(=O)O)NC(=O)[C@H](Cc1ccc(O)cc1)NC(=O)[C@@H](CCC(=O)O)NC(=O)[C@H](CO)NC(=O)[C@@H](CCC(=O)O)NC(=O)[C@H](Cc1ccc(O)cc1)NC(=O)[C@@H](CCC(=O)O)NC(=O)[C@H](CC(=O)O)NC(=O)[C@@H](N)Cc1ccc(O)cc1
notes: Designed by structure-based virtual screening against the HylA crystal structure; also called 1932
Kd [4]: 3.1 µM

Source: patent publication US20260217764A1, “SELECTIVE INHIBITORS OF C. ACNES HYALURONIDASE” (priority 2022, published 2026)
